From patent publication US7049079B1, “Coupling factor 6 inhibitor and potentiator and use thereof” (Daiichi Suntory Pharma Co.,Ltd., priority 1999, dated 2006)

Assays:
[1] = tested on: release of arachidonic acid from HUVEC (PLA2); assay: Release of [3H]-labeled arachidonic acid from HUVEC; type: cell-based, human; conditions: for inhibition of release of arachidonic acid from HUVEC by PLA2 inhibitors: 40 μM AACOCF3, 1 μM OPC, 1 μM BEL
Description: HUVEC were cultured for 24 hours in the presence of [^3H]-labeled arachidonic acid. Then the medium was replaced by DMEM and the culture was continued in the presence of […] of CF6 at 37° C. for an additional 30 minutes. Then the release of the [^3H]-labeled arachidonic acid into the liquid culture was examined. […] The same test was carried out in the presence of 1 μM of bradykinin.
Next, the effects of a cPLA2 inhibitor (40 μM of AACOCF3: arachidonic acid […]), an sPLA2 inhibitor (1 μM of OPC; oleyloxyethylphosphorylcholine) and an iPLA2 inhibitor (1 μM of BEL: […]) of inhibiting the release of arachidonic acid form HUVEC were examined. […] Namely, the PLA2 participating in the release of arachidonic acid is cPLA2 (FIGS. 20 and 21).

[2] = tested on: spontaneously hypertensive rats (SHR); assay: Arterial blood pressure of anesthetized SHR, measured in the open manner from the carotid artery; type: in vivo, rat; conditions: SHR 15 weeks of age; rCF6 0.3, 1.0, 3.0 μg/kg bolus into femoral vein
Description: (§1) Blood pressure was measured in the open manner by inserting catheters directly into the aorta of rats anesthetized with 75 mg/kg of ketamine and 15 mg/kg of xylazine hydrochloride. Namely, two polyethylene catheters filled with physiological saline containing 20 U/ml of heparin were inserted respectively into the left carotid artery and the left femoral vein. Then the catheter inserted into the left carotid artery was connected to a pressure detector (Carrier Amplifier AP-601G, Nihon Kohden Co.). Each sample was dissolved in 200 μL of physiological saline and then administered via the vena cava.
(§2) SHR and WKY each 16 weeks of age were anesthetized and the anti-rCF6 antibody (0.3, 1.0 and 3.0 μg/kg) was administered by bolus injection into the femoral vein. Then the arterial blood pressure was measured in the open manner from the carotid artery.
(§3) Effects of the anti-rCF6 antibody on the effect of bradykinin of lowering rat blood pressure were examined. SHR and WKY each 16 weeks of age were anesthetized and bradykinin (0.3, 1.0 and 3.0 μg/kg) was cumulatively administered by bolus injection into the femoral vein. Then the arterial blood pressure was measured in the open manner from the carotid artery. […]
(§4) Effects of rCF6 on rat blood pressure were examined. […] Then the arterial blood pressure was measured in an open manner from the carotid artery.

[3] = tested on: rats with normal blood pressure (WKY); assay: Arterial blood pressure of anesthetized WKY, measured in the open manner from the carotid artery; type: in vivo, rat; conditions: WKY 15 weeks of age; rCF6 0.3, 1.0, 3.0 μg/kg bolus into femoral vein
Description: as §1, §2, §3, §4

[4] = tested on: PGI2 production of human umbilical venal endothelial cells (HUVEC); assay: Inhibition of PGI2 production (6-keto-PGF1α secreted into the medium) in HUVEC; type: cell-based
Description: The activity of inhibiting the PGI2 production was evaluated by measuring the stable metabolite of PGI2 (6-keto-PGF1α) secreted into the medium of smooth muscle cells collected from SHR mesenteric artery or human umbilical venal endothelial cells (HUVEC). Namely, the smooth muscle cells collected from SHR mesenteric artery were subcultured in a Dulbecco's modified Eagle medium (DMEM) containing 10% (v/v) of fetal calf serum until these cells attained the confluent state. HUVEC were proliferated in a synthetic medium (HuMedia, Kurabo Industries) containing 2% (v/v) of fetal calf serum, 10 ng/ml of EGF, 5 ng/ml of bFGF, 1 μg/ml of hydrocortisone and 10 μg/ml of heparin. The smooth muscle cells collected from SHR mesenteric artery or HUVEC were incubated for 30 minutes in the DMEM medium containing the sample to be analyzed and 6-keto-PGF1α secreted into the medium during the incubation period was determined.
HUVEC were cultured at 37° C. for 30 minutes in the DMEM containing 1, 10 and 100 nM of rCF6 prepared in Referential Example 2 and thus the inhibition of the PGI2 production by CF6 was examined. The production of PGI2 was measured with the guidance of the amount of 6-keto-PGF1α, which is a stable metabolite of PGI2, secreted into the medium. […] The same test was carried out in the presence of 1 μM of bradykinin.
Further, 10 nM of CF6 inhibited the increase in the PGI2 production due to 2 μg/ml of ionomycin but not the increase therein due to 10 ng/ml of arachidonic acid and 10 ng/ml of PGH2.

CCCCCCCC/C=C\CCCCCCCCOCCOP(=O)([O-])OCC[N+](C)(C)C [OPC, oleyloxyethylphosphorylcholine]
inhibition of release of arachidonic acid from HUVEC by PLA2 inhibitors [1]: cPLA2 inhibitor alone inhibited

O=C1O/C(=C/Br)CCC1c1cccc2ccccc12 (stereo not drawn) [BEL, bromoenolcholine]
inhibition of release of arachidonic acid from HUVEC by PLA2 inhibitors [1]: cPLA2 inhibitor alone inhibited

CCCCC/C=C\C/C=C\C/C=C\C/C=C\CCCC(=O)C(F)(F)F [AACOCF3, arachidonic acid 3-fluoromethyl ketone]
inhibition of release of arachidonic acid from HUVEC by PLA2 inhibitors [1]: inhibited the release of arachidonic acid

B1: rCF6: rat coupling factor 6, a 76 amino acid subunit of H+ ATP synthase (SEQ ID NO:2), recombinantly produced (protein)
chain: NKELDPVQKLFLDKIREYKAKRLASGGPVDTGPEYQQEVDRELFKLKQMYGKGEMDKFPTFNFEDPKFEVLDKPQS
modifications: Rat
average arterial blood pressure [2]: dose-dependently increased | average arterial blood pressure [3]: dose-dependently increased | increase in PGI2 production due to PGH2 ([4]; 10 nM CF6, 10 ng/ml PGH2): not | increase in PGI2 production due to arachidonic acid ([4]; 10 nM CF6, 10 ng/ml arachidonic acid): not | increase in PGI2 production due to ionomycin ([4]; 10 nM CF6, 2 μg/ml ionomycin): inhibited | PGI2 production (6-keto-PGF1α) ([4]; HUVEC, 1, 10 and 100 nM rCF6, 37° C., 30 minutes): dose-dependently inhibited | increase in PGI2 production due to bradykinin ([4]; HUVEC, 1, 10 and 100 nM rCF6, in the presence of 1 μM bradykinin): dose-independently inhibited | release of [3H]-labeled arachidonic acid ([1]; HUVEC, 1, 10 and 100 mM CF6, 37° C., 30 minutes): dose-dependently inhibited | bradykinin-promoted release of [3H]-labeled arachidonic acid ([1]; HUVEC, CF6 1, 10 and 100 mM, in the presence of 1 μM bradykinin): dose-dependently inhibited
